Results as given in patent US20110040077, “Protein-Responsive Translational Regulatory System Using RNA-Protein Interacting Motif” (JAPAN SCIENCE AND TECHNOLOGY AGENCY, published 2011).

Columns and labels:
[1] = biological target: T1, L7Ae (Archaeoglobus fulgidus, UniProt O29494 SEQ:21-139); assay: EMSA; 150 mM KCl, 1.5 mM MgCl2, tRNA competitor, 0-500 nM protein, on ice; details: tags: His tag (pET-28b+, NdeI/XhoI); label: 32P
Method: (§1) The reaction of L7Ae with Box C/D, Box C/D mini, or Box C/D minimut was performed at a final concentration of 10 nM, 25 nM, or 25 nM RNA, respectively. The reaction was performed as follows under conditions involving 10 nM or 25 nM RNA, 20 mM Hepes-KOH, 150 mM KCl, 1.5 mM MgCl₂, 2 mM DTT, 0.001 U/mL tRNA, 3% glycerol, and 0 to 500 nM protein. First, 1 μL of ³²P-labeled RNA was denatured at 80° C. for 5 minutes and then supplemented with 4 μL of 5×binding buffer (100 mM Hepes-KOH (pH 7.5), 750 mM KCl, 7.5 mM MgCl₂, 10 mM DTT, 0.005 U/ρL tRNA, 15% glycerol) and ultrapure water. Then, the solution was mixed with the protein to adjust the whole amount to 20 μL. The reaction solution was left on ice for 60 minutes. 2 μL of dye (0.25% BPB, 0.25% XC, 30% glycerol) was added thereto, and the mixture was electrophoresed on a 8% nondenaturing polyacrylamide gel at 4° C. for 3 to 4 hours. Then, the gel was dried for 1 hour using a gel drier and analyzed for its radiation dose intensity using Bio-Imaging Analyzer (BAS2500; FUJIFILM) (FIGS. 4 and 5).

[2] = biological target: T2, ThrRS (threonyl-tRNA synthetase) (Escherichia coli, UniProt P0A8M3 SEQ:13-654); assay: EMSA; 50 mM KCl, 5 mM MgCl2, 0-40 uM protein; stronger than Domain 2; details: tags: His tag (pQE-30); label: 32P
T2 sequence (P0A8M3 whole entry, the tested form may be a part): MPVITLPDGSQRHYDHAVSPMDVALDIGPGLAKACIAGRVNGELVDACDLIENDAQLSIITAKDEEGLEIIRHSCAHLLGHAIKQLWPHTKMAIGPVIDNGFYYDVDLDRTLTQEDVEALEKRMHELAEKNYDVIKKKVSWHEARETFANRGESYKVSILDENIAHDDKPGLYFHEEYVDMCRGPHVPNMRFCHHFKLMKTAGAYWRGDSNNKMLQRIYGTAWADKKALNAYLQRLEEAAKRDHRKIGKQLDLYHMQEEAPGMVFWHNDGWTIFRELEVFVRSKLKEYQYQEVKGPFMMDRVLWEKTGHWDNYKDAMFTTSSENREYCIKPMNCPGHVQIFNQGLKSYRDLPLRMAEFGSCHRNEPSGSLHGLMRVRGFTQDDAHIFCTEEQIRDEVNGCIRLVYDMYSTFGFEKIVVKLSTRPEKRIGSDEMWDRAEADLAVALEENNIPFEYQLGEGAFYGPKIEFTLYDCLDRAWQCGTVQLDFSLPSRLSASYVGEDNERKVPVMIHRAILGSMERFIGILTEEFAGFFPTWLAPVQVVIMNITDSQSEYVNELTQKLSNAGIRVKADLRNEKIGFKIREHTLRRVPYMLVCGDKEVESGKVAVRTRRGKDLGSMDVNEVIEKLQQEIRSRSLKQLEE
Method: (§2) The reaction of ThrRS with Domain 234 or Domain 2 was performed as follows under conditions involving final concentrations of 20 nM RNA, 25 mM Hepes-KOH, 50 mM KCl, 5 mM MgCl₂, 1 mM DTT, 5% glycerol, and 0 to 40 μM protein. First, […] ³²P-labeled RNA was denatured at 80° C. for 5 minutes and then supplemented with 4 μL of 5×binding buffer ([…], 250 mM KCl, 25 mM MgCl₂, 5 mM DTT, 25% glycerol) and ultrapure water. Then, the solution was mixed with the protein to adjust the whole amount to 20 μL. The reaction solution was left on ice for 60 minutes. 2 μL of dye (0.25% BPB, 0.25% XC, 30% glycerol) was added thereto, and the mixture was electrophoresed on a 12% nondenaturing polyacrylamide gel at 4° C. for 3 to 4 hours. Then, the gel was dried for 1 hour using a gel drier and analyzed for its radiation dose intensity using Bio-Imaging Analyzer (BAS2500; FUJIFILM) (FIGS. 6 and 7).
(§3) As a result, both ThrRS Domain 234 and ThrRS Domain 2 were confirmed to increase the band in a ThrRS protein concentration-dependent manner. […] As is also evident from the degree of band smear, Domain 234 has stronger binding than only Domain 2.

[3] = biological target: T1, L7Ae; assay: EMSA; no band increase at 0-500 nM protein; details: tags: His tag (pET-28b+, NdeI/XhoI); label: 32P
Method: as §1
(§4) As a result, both Box C/D and Box C/D mini were confirmed to increase the band in an L7Ae protein concentration-dependent manner.

[4] = biological target: T1, L7Ae; assay: EMSA; 150 mM KCl, 1.5 mM MgCl2, tRNA competitor, 0-500 nM protein, on ice; details: tags: His tag (pET-28b+, NdeI/XhoI); label: 32P; remark: listed apart in the source
Method: as §1, §4

[5] = biological target: T2, ThrRS (threonyl-tRNA synthetase); assay: EMSA; 50 mM KCl, 5 mM MgCl2, 0-40 uM protein; supershift suggests dimer; weaker than Domain 234; details: tags: His tag (pQE-30); label: 32P
Method: as §2, §3

T1 sequence (O29494 whole entry): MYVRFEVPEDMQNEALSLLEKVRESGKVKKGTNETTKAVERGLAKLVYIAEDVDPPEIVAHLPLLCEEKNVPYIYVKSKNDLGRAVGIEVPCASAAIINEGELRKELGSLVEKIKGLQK

B1: Box C/D (ssRNA)
RNA: GGCCAGAGUGGGCGUGAUGCAUGUCUAGGAAACUAGACAUGCUGACCCACUCUGGCC
binding result [1]: binds

B2: ThrRS Domain 234 (ssRNA)
RNA: GGAUUGCGAACCAAUUUAGCAUUUGUUGGCUGCAAAUGGUUUCGCAAUGAACUGUUAAUAAACAAAUUUUUCUUUGUAUGUGAUCUUUCGUGUGGGUCACCACUGCAAA
binding result [2]: binds

B3: Box C/D minimut (ssRNA)
RNA: GGGCGUCAUGCGAAAGCUGCCCC
binding result [3]: no binding

B4: Box C/D mini (ssRNA)
RNA: GGGCGUGAUGCGAAAGCUGACCC
binding result [4]: binds

B5: ThrRS Domain 2 (ssRNA)
RNA: GGCGUAUGUGAUCUUUCGUGUGGGUCACCACUGCGCC
binding result [5]: binds
